Measurements from paper PMC8560819, “Dynamic interactions and Ca^2+-binding modulate the holdase-type chaperone activity of S100B preventing tau aggregation and seeding” (Nature Communications, 2021).

B1: R0 peptide (peptide)
peptide: Ac-REPKKVAVVRTP-NH2
notes: 12-residue tau peptide from the proline-rich region, holds Thr231; also called RO; source: synthetic peptide, bought: Genecust (France)
B2: R3 peptide (peptide)
peptide: Ac-PGGGSVQIVYKP-NH2
notes: 12-residue tau peptide within K18 that holds PHF6 (306-VQIVYK-311); source: synthetic peptide, bought: Genecust (France)
B3: R2 peptide (peptide)
peptide: Ac-PGGGKVQIINKK-NH2
notes: 12-residue tau peptide within K18 that holds PHF6* (275-VQIINK-280); source: synthetic peptide, bought: Genecust (France)
B4: S100B (natural protein)
chain: MSELEKAMVALIDVFHQYSGREGDKHKLKKSELKELINNELSHFLEEIKEQEVVDKVMETLDNDGDGECDFQEFMAFVAMVTTACHEFFEHE
notes: the crystal structure PDB 2H61 and the assignment BMRB 27199 were used for it; Used unlabelled or uniformly 15N-labelled (M9 medium with 15N-ammonium chloride); also called S100B-Ca^2+; apo S100B

Columns and labels:
S100B = target: B4; test: NMR titration; 100 µM 15N-S100B titrated with 50 to 750 µM tau peptide; 50 mM Hepes pH 6.8, 1.25 mM CaCl2, 298 K; Kd from chemical shift perturbation of 11 resonances; conditions: both partners purified
[1] = target: the molecule itself; test: SEC-SAXS; Superdex 200 (3.2/300), 50 mM Tris-HCl, 100 mM NaCl, 2% glycerol, 2 mM CaCl2, pH 7.9; S100B alone, S100B mixed with equimolar K18, or K18 alone, 12–13 mg/ml

| Kd (S100B) [µM] | Binder | stoichiometry N [1] |
| --- | --- | --- |
| 519 | B1 | – |
| 266 | B2 | – |
| 163 | B3 | – |
| – | B4 | 2 |
